These results are taken from patent US20160194394A1 (GOVERNING COUNCIL OF THE UNIVERSITY OF TORONTO, published 2016).

Experiment [1] addresses T1, recombinant Frizzled receptor 7 (FZD7) cysteine-rich domain (CRD) fused to the Fc region of human IgG (human, UniProt O75084 33-185). Description: ELISA, 1ug/ml (20nM) Fab [cont'd]. The protocol:
(§1) FIG. 2B is a table depicting the binding of purified Fabs to purified FZD7-Fc measured by ELISA. Fabs purified from 25 ml bacterial cultures were assayed for binding to FZD7-Fc fusion protein (R&D systems) and Fc protein. ELISA plates (384 well) were coated with 2 ug/ml of protein in PBS overnight at four degrees. Wells were blocked with 0.5% BSA/PBS for 1 hour at room temperature, washed three times with 0.05% Tween20/PBS (wash buffer), and then primary dilutions of Fabs in 0.5% BSA/0.05% Tween20/PBS (dilution buffer) were added at indicated concentrations. Fabs were incubated for 1 hour at room temperature, wells were washed six times, and anti-FLAG-HRP (Sigma) was added at 1:5000 in dilution buffer. Secondary antibody was incubated for 45 minutes at room temperature, and wells were washed six times and developed with TMB substrate with an acid stop. The absorbance at 450 nm was read. n.t.=not tested.
(ELISA stands for enzyme-linked immunosorbent assay.)

Experiment [2] has as its target T2, Fc control protein.
T2 construct: also called Fc protein; control Fc protein
Description: ELISA, 1ug/ml (20nM) Fab [cont'd]. The method, then:
as §1

The target of experiment [3] is T1, recombinant Frizzled receptor 7 (FZD7) …. Description: ELISA, 10ug/ml (200nM) Fab [cont'd]. The method, then:
as §1

Experiment [4] concerns the target T2, Fc control protein. Description: ELISA, 10ug/ml (200nM) Fab [cont'd]. The protocol: as §1
The target of experiment [5] is T3, FZD7 receptor expressed on cells (full-length) (UniProt O75084 33-574, limits assumed).
T3 construct: whole, on cells; MDA MB 231 cells may carry other Frizzled receptors too; also called full-length FZD7 receptor; endogenous receptor on MDA MB 231 cells
Description: flow cytometry, 200 nM Fab, MDA MB 231 [cont'd]. The protocol: (§2) FIG. 3 is a table depicting the binding of the purified Fabs to cells expressing FZD7 (flow cytometry). Small scale Fabs were assayed for binding to full-length FZD7 receptor to an over-expression line in MDA MB 231 cells. In parallel, Fabs were assayed for binding to endogenous receptor expressed on the MDA MB 231 cells. Cells were harvested using an EDTA solution, blocked in 2% FBS/PBS (stain buffer), and stained with 200 nM Fab for 30 min on ice. Cells were washed two times with stain buffer and incubated with anti-F(ab′)₂-APC secondary antibody (Jackson Immuno) at 1:1000 for 15 minutes on ice. All antibodies were diluted in stain buffer. Cells were washed three times with stain buffer and then fixed with 1% paraformaldehye for analysis by flow cytometry. […] The percent of the cell population within the positive gates is indicated.
(A flow cytometer gives signals particle by particle.)

The target of experiment [6] is T3, FZD7 receptor expressed on cells …. Put plainly: flow cytometry, 200 nM Fab, FZD7 over-expression line (MDA MB 231) [cont'd]. The protocol: as §2

B1: B11 (Fab)
light: DIQMTQSPSSLSASVGDRVTITCRASQSVSSAVAWYQQKPGKAPKLLIYSASSLYSGVPSRFSGSRSGTDFTLTISSLQPEDFATYYCQQYFYSSYSPITFGQGTKVEIKRTVAAPSVFIFPPSDSQLKSGTASVVCLLNNFYPREAKVQWKVDNALQSGNSQESVTEQDSKDSTYSLSSTLTLSKADYEKHKVYACEVTHQGLSSPVTKSFNRGECGGS
heavy: EVQLVESGGGLVQPGGSLRLSCAASGFNISYSYMHWVRQAPGKGLEWVAYIYPSYSSTSYADSVKGRFTISADTSKNTAYLQMNSLRAEDTAVYYCARASYWALDYWGQGTLVTVSSASTKGPSVFPLAPSSKSTSGGTAALGCLVKDYFPEPVTVSWNSGALTSGVHTFPAVLQSSGLYSLSSVVTVPSSSLGTQTYICNVNHKPSNTKVDKKVEPKSC
notes: selection round 2; also called Fzd7-R2-B11
With B1, the “OD 450” value in experiment [1] was 3.15; with Fc control protein [2], 0.05; in experiment [3], 3.2; with Fc control protein [4], 0.08. Further, the “% population within the positive gate” value in experiment [5] is 97.2%; in experiment [6], 91.2%.

B2: H8 (Fab)
light: DIQMTQSPSSLSASVGDRVTITCRASQSVSSAVAWYQQKPGKAPKLLIYSASSLYSGVPSRFSGSRSGTDFTLTISSLQPEDFATYYCQQSFYWGYPPFTFGQGTKVEIKRTVAAPSVFIFPPSDSQLKSGTASVVCLLNNFYPREAKVQWKVDNALQSGNSQESVTEQDSKDSTYSLSSTLTLSKADYEKHKVYACEVTHQGLSSPVTKSFNRGECGGS
heavy: EVQLVESGGGLVQPGGSLRLSCAASGFNIYSSSIHWVRQAPGKGLEWVASIYSYYGYTYYADSVKGRFTISADTSKNTAYLQMNSLRAEDTAVYYCARWYAFDYWGQGTLVTVSSASTKGPSVFPLAPSSKSTSGGTAALGCLVKDYFPEPVTVSWNSGALTSGVHTFPAVLQSSGLYSLSSVVTVPSSSLGTQTYICNVNHKPSNTKVDKKVEPKSC
notes: selection round 2; also called Fzd7-R2-H8
As for B2, the “OD 450” value in experiment [1] turned out to be 0.78; with Fc control protein [2], 0.06; in experiment [3], 2.7; with Fc control protein [4] it was 0.08. Further, the figures for the “% population within the positive gate” value in experiment [5] and in experiment [6] were 1.1% and 79.6%, respectively.

B3: A7 (Fab)
light: DIQMTQSPSSLSASVGDRVTITCRASQSVSSAVAWYQQKPGKAPKLLIYSASSLYSGVPSRFSGSRSGTDFTLTISSLQPEDFATYYCQQYHYGYYPFTFGQGTKVEIKRTVAAPSVFIFPPSDSQLKSGTASVVCLLNNFYPREAKVQWKVDNALQSGNSQESVTEQDSKDSTYSLSSTLTLSKADYEKHKVYACEVTHQGLSSPVTKSFNRGECGGS
heavy: EVQLVESGGGLVQPGGSLRLSCAASGFNLSSSYIHWVRQAPGKGLEWVAYIYSSYGSTYYADSVKGRFTISADTSKNTAYLQMNSLRAEDTAVYYCARASWWAIDYWGQGTLVTVSSASTKGPSVFPLAPSSKSTSGGTAALGCLVKDYFPEPVTVSWNSGALTSGVHTFPAVLQSSGLYSLSSVVTVPSSSLGTQTYICNVNHKPSNTKVDKKVEPKSC
notes: selection round 2; also called Fzd7-R2-A7
Take B3: the “OD 450” value in experiment [1] is 3.19; with Fc control protein [2], 0.07; in experiment [3] it was 3.22; with Fc control protein [4], 0.07. Besides, the “% population within the positive gate” value in experiment [5] worked out at 96.3%; in experiment [6], 92.7%.

B4: D11 (Fab)
light: DIQMTQSPSSLSASVGDRVTITCRASQSVSSAVAWYQQKPGKAPKLLIYSASSLYSGVPSRFSGSRSGTDFTLTISSLQPEDFATYYCQQYFPSGLITFGQGTKVEIKRTVAAPSVFIFPPSDSQLKSGTASVVCLLNNFYPREAKVQWKVDNALQSGNSQESVTEQDSKDSTYSLSSTLTLSKADYEKHKVYACEVTHQGLSSPVTKSFNRGECGGS
heavy: EVQLVESGGGLVQPGGSLRLSCAASGFNISYSYMHWVRQAPGKGLEWVASISPSSGYTSYADSVKGRFTISADTSKNTAYLQMNSLRAEDTAVYYCARSVSWWYSWWSWGMDYWGQGTLVTVSSASTKGPSVFPLAPSSKSTSGGTAALGCLVKDYFPEPVTVSWNSGALTSGVHTFPAVLQSSGLYSLSSVVTVPSSSLGTQTYICNVNHKPSNTKVDKKVEPKSC
notes: selection round 3; also called Fzd7-R3-D11
As for B4, the “OD 450” value in experiment [1] is 1.42; in the experiment with Fc control protein [2], 0.06; in experiment [3] it was 2.79; with Fc control protein [4], 0.15. Moreover, the figures for the “% population within the positive gate” value in experiment [5] and in experiment [6] were 1.2% and 81%, respectively.

B5: B2 (Fab)
light: DIQMTQSPSSLSASVGDRVTITCRASQSVSSAVAWYQQKPGKAPKLLIYSASSLYSGVPSRFSGSRSGTDFTLTISSLQPEDFATYYCQQAYAYLITFGQGTKVEIKRTVAAPSVFIFPPSDSQLKSGTASVVCLLNNFYPREAKVQWKVDNALQSGNSQESVTEQDSKDSTYSLSSTLTLSKADYEKHKVYACEVTHQGLSSPVTKSFNRGECGGS
heavy: EVQLVESGGGLVQPGGSLRLSCAASGFNISYSSMHWVRQAPGKGLEWVASISSSYGYTYYADSVKGRFTISADTSKNTAYLQMNSLRAEDTAVYYCARSGGHFYYWYVAAAMDYWGQGTLVTVSSASTKGPSVFPLAPSSKSTSGGTAALGCLVKDYFPEPVTVSWNSGALTSGVHTFPAVLQSSGLYSLSSVVTVPSSSLGTQTYICNVNHKPSNTKVDKKVEPKSC
notes: selection round 2; not the round 3 clone B2 (f33); also called Fzd7-R2-B2
As for B5, the “OD 450” value in experiment [1] amounted to 3.19; with Fc control protein [2] it was 0.06; in experiment [3], 3.18; in the experiment with Fc control protein [4], 0.13. In addition, the “% population within the positive gate” value came to 7.1% in experiment [5] and 86.8% in experiment [6].

B6: C1 (Fab)
light: DIQMTQSPSSLSASVGDRVTITCRASQSVSSAVAWYQQKPGKAPKLLIYSASSLYSGVPSRFSGSRSGTDFTLTISSLQPEDFATYYCQQYGHYLITFGQGTKVEIKRTVAAPSVFIFPPSDSQLKSGTASVVCLLNNFYPREAKVQWKVDNALQSGNSQESVTEQDSKDSTYSLSSTLTLSKADYEKHKVYACEVTHQGLSSPVTKSFNRGECGGS
heavy: EVQLVESGGGLVQPGGSLRLSCAASGFNLYSYSMHWVRQAPGKGLEWVASISSYYGSTYYADSVKGRFTISADTSKNTAYLQMNSLRAEDTAVYYCARAHGSSPGWYYAPYAGGGLDYWGQGTLVTVSSASTKGPSVFPLAPSSKSTSGGTAALGCLVKDYFPEPVTVSWNSGALTSGVHTFPAVLQSSGLYSLSSVVTVPSSSLGTQTYICNVNHKPSNTKVDKKVEPKSC
notes: selection round 2; also called Fzd7-R2-C1
On to B6, for which the “OD 450” value in experiment [1] was found to be 3.15; with Fc control protein [2], 0.06; in experiment [3], 3.19; with Fc control protein [4], 0.14. In addition, the figures for the “% population within the positive gate” value in experiment [5] and in experiment [6] were 66.5% and 87.3%, respectively.

B7: C12 (Fab)
light: DIQMTQSPSSLSASVGDRVTITCRASQSVSSAVAWYQQKPGKAPKLLIYSASSLYSGVPSRFSGSRSGTDFTLTISSLQPEDFATYYCQQSSYSLITFGQGTKVEIKRTVAAPSVFIFPPSDSQLKSGTASVVCLLNNFYPREAKVQWKVDNALQSGNSQESVTEQDSKDSTYSLSSTLTLSKADYEKHKVYACEVTHQGLSSPVTKSFNRGECGGS
heavy: EVQLVESGGGLVQPGGSLRLSCAASGFNLSYSYMHWVRQAPGKGLEWVASIYSSYGYTSYADSVKGRFTISADTSKNTAYLQMNSLRAEDTAVYYCARYYGWAYYYSYFPAWAGGGIDYWGQGTLVTVSSASTKGPSVFPLAPSSKSTSGGTAALGCLVKDYFPEPVTVSWNSGALTSGVHTFPAVLQSSGLYSLSSVVTVPSSSLGTQTYICNVNHKPSNTKVDKKVEPKSC
notes: selection round 2; same four CDRs as Fzd7-R3-B2 (f33); also called Fzd7-R2-C12
B7: the “OD 450” value amounted to 2.87 in experiment [1], 0.05 with Fc control protein [2], 3.15 in experiment [3] and 0.07 with Fc control protein [4]. Also, the “% population within the positive gate” value in experiment [5] stood at 11.9%; in experiment [6], 86.9%.

B8: B7 (Fab)
light: DIQMTQSPSSLSASVGDRVTITCRASQSVSSAVAWYQQKPGKAPKLLIYSASSLYSGVPSRFSGSRSGTDFTLTISSLQPEDFATYYCQQAYYPLFTFGQGTKVEIKRTVAAPSVFIFPPSDSQLKSGTASVVCLLNNFYPREAKVQWKVDNALQSGNSQESVTEQDSKDSTYSLSSTLTLSKADYEKHKVYACEVTHQGLSSPVTKSFNRGECGGS
heavy: EVQLVESGGGLVQPGGSLRLSCAASGFNISYSSMHWVRQAPGKGLEWVASIYPSYGYTSYADSVKGRFTISADTSKNTAYLQMNSLRAEDTAVYYCARVYWSSSYWAGGYWVGSAFDYWGQGTLVTVSSASTKGPSVFPLAPSSKSTSGGTAALGCLVKDYFPEPVTVSWNSGALTSGVHTFPAVLQSSGLYSLSSVVTVPSSSLGTQTYICNVNHKPSNTKVDKKVEPKSC
notes: selection round 3; also called Fzd7-R3-B7
On to B8, for which the “OD 450” value was determined as 2.12 in experiment [1], 0.06 in the experiment with Fc control protein [2], 3.06 in experiment [3] and 0.07 with Fc control protein [4]. The “% population within the positive gate” value came to 0.7% in experiment [5] and 80.1% in experiment [6].
